Test results taken from patent US20140087995A1 (published 2014).
Numbered stars: 1 amine (or outer) side, 2 acyl side, 3 side chain; on linkers, the order of the positions; unused ones are H or OH. Bridge positions count the residues as written; N and C are the ends. Square brackets hold non-standard residues; d marks the D form. Side chains are listed from the residue outwards. Ends that are not written are not given here. * marks the point of attachment. C20 diacid = O=C(O)CCCCCCCCCCCCCCCCCCC(=O)*; γGlu = O=C(O)[C@H](CCC(=O)[*:2])N[*:1]

B1: N^ε1-[(4S)-4-carboxy-4-(19-carboxynonadecanoylamino)butanoyl]-[Glu14,Arg17,Pro21,Pro27,Pro34,Arg35]-h-amylin (peptide)
peptide: K([γGlu-C20 diacid])CNTATCATQRLAEFLRHSSPNFGAIPSSTNVGPRTY-NH2
modifications: disulfide 2-7; N-terminus assumed
SMILES: CC[C@H](C)[C@H](NC(=O)[C@H](C)NC(=O)CNC(=O)[C@H](Cc1ccccc1)NC(=O)[C@H](CC(N)=O)NC(=O)[C@@H]1CCCN1C(=O)[C@H](CO)NC(=O)[C@H](CO)NC(=O)[C@H](Cc1c[nH]cn1)NC(=O)[C@H](CCCNC(=N)N)NC(=O)[C@H](CC(C)C)NC(=O)[C@H](Cc1ccccc1)NC(=O)[C@H](CCC(=O)O)NC(=O)[C@H](C)NC(=O)[C@H](CC(C)C)NC(=O)[C@H](CCCNC(=N)N)NC(=O)[C@H](CCC(N)=O)NC(=O)[C@@H](NC(=O)[C@H](C)NC(=O)[C@@H]1CSSC[C@H](NC(=O)[C@@H](N)CCCCNC(=O)CC[C@H](NC(=O)CCCCCCCCCCCCCCCCCCC(=O)O)C(=O)O)C(=O)N[C@@H](CC(N)=O)C(=O)N[C@@H]([C@@H](C)O)C(=O)N[C@@H](C)C(=O)N[C@@H]([C@@H](C)O)C(=O)N1)[C@@H](C)O)C(=O)N1CCC[C@H]1C(=O)N[C@@H](CO)C(=O)N[C@@H](CO)C(=O)N[C@H](C(=O)N[C@@H](CC(N)=O)C(=O)N[C@H](C(=O)NCC(=O)N1CCC[C@H]1C(=O)N[C@@H](CCCNC(=N)N)C(=O)N[C@H](C(=O)N[C@@H](Cc1ccc(O)cc1)C(N)=O)[C@@H](C)O)C(C)C)[C@@H](C)O
B2: N^ε1-[(4S)-4-carboxy-4-[[(4S)-4-carboxy-4-(19-carboxynonadecanoylamino)butanoyl]amino]butanoyl]-[Arg17,Pro21,Pro27,Pro31,Pro34,Arg35]-h-amylin (peptide)
peptide: K([γGlu-γGlu-C20 diacid])CNTATCATQRLANFLRHSSPNFGAIPSSTPVGPRTY-NH2
modifications: disulfide 2-7; N-terminus assumed
SMILES: CC[C@H](C)[C@H](NC(=O)[C@H](C)NC(=O)CNC(=O)[C@H](Cc1ccccc1)NC(=O)[C@H](CC(N)=O)NC(=O)[C@@H]1CCCN1C(=O)[C@H](CO)NC(=O)[C@H](CO)NC(=O)[C@H](Cc1c[nH]cn1)NC(=O)[C@H](CCCNC(=N)N)NC(=O)[C@H](CC(C)C)NC(=O)[C@H](Cc1ccccc1)NC(=O)[C@H](CC(N)=O)NC(=O)[C@H](C)NC(=O)[C@H](CC(C)C)NC(=O)[C@H](CCCNC(=N)N)NC(=O)[C@H](CCC(N)=O)NC(=O)[C@@H](NC(=O)[C@H](C)NC(=O)[C@@H]1CSSC[C@H](NC(=O)[C@@H](N)CCCCNC(=O)CC[C@H](NC(=O)CC[C@H](NC(=O)CCCCCCCCCCCCCCCCCCC(=O)O)C(=O)O)C(=O)O)C(=O)N[C@@H](CC(N)=O)C(=O)N[C@@H]([C@@H](C)O)C(=O)N[C@@H](C)C(=O)N[C@@H]([C@@H](C)O)C(=O)N1)[C@@H](C)O)C(=O)N1CCC[C@H]1C(=O)N[C@@H](CO)C(=O)N[C@@H](CO)C(=O)N[C@H](C(=O)N1CCC[C@H]1C(=O)N[C@H](C(=O)NCC(=O)N1CCC[C@H]1C(=O)N[C@@H](CCCNC(=N)N)C(=O)N[C@H](C(=O)N[C@@H](Cc1ccc(O)cc1)C(N)=O)[C@@H](C)O)C(C)C)[C@@H](C)O
B3: N^ε1-[(4S)-4-carboxy-4-(19-carboxynonadecanoylamino)butanoyl]-[His14,Arg17,Pro21,Pro27,His34]-h-amylin (peptide)
peptide: K([γGlu-C20 diacid])CNTATCATQRLAHFLRHSSPNFGAIPSSTNVGHNTY-NH2
modifications: disulfide 2-7; N-terminus assumed
SMILES: CC[C@H](C)[C@H](NC(=O)[C@H](C)NC(=O)CNC(=O)[C@H](Cc1ccccc1)NC(=O)[C@H](CC(N)=O)NC(=O)[C@@H]1CCCN1C(=O)[C@H](CO)NC(=O)[C@H](CO)NC(=O)[C@H](Cc1c[nH]cn1)NC(=O)[C@H](CCCNC(=N)N)NC(=O)[C@H](CC(C)C)NC(=O)[C@H](Cc1ccccc1)NC(=O)[C@H](Cc1c[nH]cn1)NC(=O)[C@H](C)NC(=O)[C@H](CC(C)C)NC(=O)[C@H](CCCNC(=N)N)NC(=O)[C@H](CCC(N)=O)NC(=O)[C@@H](NC(=O)[C@H](C)NC(=O)[C@@H]1CSSC[C@H](NC(=O)[C@@H](N)CCCCNC(=O)CC[C@H](NC(=O)CCCCCCCCCCCCCCCCCCC(=O)O)C(=O)O)C(=O)N[C@@H](CC(N)=O)C(=O)N[C@@H]([C@@H](C)O)C(=O)N[C@@H](C)C(=O)N[C@@H]([C@@H](C)O)C(=O)N1)[C@@H](C)O)C(=O)N1CCC[C@H]1C(=O)N[C@@H](CO)C(=O)N[C@@H](CO)C(=O)N[C@H](C(=O)N[C@@H](CC(N)=O)C(=O)N[C@H](C(=O)NCC(=O)N[C@@H](Cc1c[nH]cn1)C(=O)N[C@@H](CC(N)=O)C(=O)N[C@H](C(=O)N[C@@H](Cc1ccc(O)cc1)C(N)=O)[C@@H](C)O)C(C)C)[C@@H](C)O
notes: also called compound 81
B4: N^ε1-[(4S)-4-carboxy-4-[[(4S)-4-carboxy-4-(19-carboxynonadecanoylamino)butanoyl]amino]butanoyl]-[D-Asp14,Arg17,Pro21,Pro27,Arg35]-h-amylin (peptide)
peptide: K([γGlu-γGlu-C20 diacid])CNTATCATQRLA[dD]FLRHSSPNFGAIPSSTNVGSRTY-NH2
modifications: disulfide 2-7; N-terminus assumed
SMILES: CC[C@H](C)[C@H](NC(=O)[C@H](C)NC(=O)CNC(=O)[C@H](Cc1ccccc1)NC(=O)[C@H](CC(N)=O)NC(=O)[C@@H]1CCCN1C(=O)[C@H](CO)NC(=O)[C@H](CO)NC(=O)[C@H](Cc1c[nH]cn1)NC(=O)[C@H](CCCNC(=N)N)NC(=O)[C@H](CC(C)C)NC(=O)[C@H](Cc1ccccc1)NC(=O)[C@@H](CC(=O)O)NC(=O)[C@H](C)NC(=O)[C@H](CC(C)C)NC(=O)[C@H](CCCNC(=N)N)NC(=O)[C@H](CCC(N)=O)NC(=O)[C@@H](NC(=O)[C@H](C)NC(=O)[C@@H]1CSSC[C@H](NC(=O)[C@@H](N)CCCCNC(=O)CC[C@H](NC(=O)CC[C@H](NC(=O)CCCCCCCCCCCCCCCCCCC(=O)O)C(=O)O)C(=O)O)C(=O)N[C@@H](CC(N)=O)C(=O)N[C@@H]([C@@H](C)O)C(=O)N[C@@H](C)C(=O)N[C@@H]([C@@H](C)O)C(=O)N1)[C@@H](C)O)C(=O)N1CCC[C@H]1C(=O)N[C@@H](CO)C(=O)N[C@@H](CO)C(=O)N[C@H](C(=O)N[C@@H](CC(N)=O)C(=O)N[C@H](C(=O)NCC(=O)N[C@@H](CO)C(=O)N[C@@H](CCCNC(=N)N)C(=O)N[C@H](C(=O)N[C@@H](Cc1ccc(O)cc1)C(N)=O)[C@@H](C)O)C(C)C)[C@@H](C)O
notes: Residue 14 is D-aspartic acid (printed 14d)
B5: N^ε1-[(4S)-4-carboxy-4-(19-carboxynonadecanoylamino)butanoyl]-[His14,Arg17,Pro21,Pro27,Arg34]-h-amylin (peptide)
peptide: K([γGlu-C20 diacid])CNTATCATQRLAHFLRHSSPNFGAIPSSTNVGRNTY-NH2
modifications: disulfide 2-7; N-terminus assumed
SMILES: CC[C@H](C)[C@H](NC(=O)[C@H](C)NC(=O)CNC(=O)[C@H](Cc1ccccc1)NC(=O)[C@H](CC(N)=O)NC(=O)[C@@H]1CCCN1C(=O)[C@H](CO)NC(=O)[C@H](CO)NC(=O)[C@H](Cc1c[nH]cn1)NC(=O)[C@H](CCCNC(=N)N)NC(=O)[C@H](CC(C)C)NC(=O)[C@H](Cc1ccccc1)NC(=O)[C@H](Cc1c[nH]cn1)NC(=O)[C@H](C)NC(=O)[C@H](CC(C)C)NC(=O)[C@H](CCCNC(=N)N)NC(=O)[C@H](CCC(N)=O)NC(=O)[C@@H](NC(=O)[C@H](C)NC(=O)[C@@H]1CSSC[C@H](NC(=O)[C@@H](N)CCCCNC(=O)CC[C@H](NC(=O)CCCCCCCCCCCCCCCCCCC(=O)O)C(=O)O)C(=O)N[C@@H](CC(N)=O)C(=O)N[C@@H]([C@@H](C)O)C(=O)N[C@@H](C)C(=O)N[C@@H]([C@@H](C)O)C(=O)N1)[C@@H](C)O)C(=O)N1CCC[C@H]1C(=O)N[C@@H](CO)C(=O)N[C@@H](CO)C(=O)N[C@H](C(=O)N[C@@H](CC(N)=O)C(=O)N[C@H](C(=O)NCC(=O)N[C@@H](CCCNC(=N)N)C(=O)N[C@@H](CC(N)=O)C(=O)N[C@H](C(=O)N[C@@H](Cc1ccc(O)cc1)C(N)=O)[C@@H](C)O)C(C)C)[C@@H](C)O
notes: also called compound 85
B6: N^ε1-[(4S)-4-carboxy-4-[[(4S)-4-carboxy-4-(19-carboxynonadecanoylamino)butanoyl]amino]butanoyl]-[Asp14,Arg17,Pro21,Pro27,Pro34,Arg35]-h-amylin (peptide)
peptide: K([γGlu-γGlu-C20 diacid])CNTATCATQRLADFLRHSSPNFGAIPSSTNVGPRTY-NH2
modifications: disulfide 2-7; N-terminus assumed
SMILES: CC[C@H](C)[C@H](NC(=O)[C@H](C)NC(=O)CNC(=O)[C@H](Cc1ccccc1)NC(=O)[C@H](CC(N)=O)NC(=O)[C@@H]1CCCN1C(=O)[C@H](CO)NC(=O)[C@H](CO)NC(=O)[C@H](Cc1c[nH]cn1)NC(=O)[C@H](CCCNC(=N)N)NC(=O)[C@H](CC(C)C)NC(=O)[C@H](Cc1ccccc1)NC(=O)[C@H](CC(=O)O)NC(=O)[C@H](C)NC(=O)[C@H](CC(C)C)NC(=O)[C@H](CCCNC(=N)N)NC(=O)[C@H](CCC(N)=O)NC(=O)[C@@H](NC(=O)[C@H](C)NC(=O)[C@@H]1CSSC[C@H](NC(=O)[C@@H](N)CCCCNC(=O)CC[C@H](NC(=O)CC[C@H](NC(=O)CCCCCCCCCCCCCCCCCCC(=O)O)C(=O)O)C(=O)O)C(=O)N[C@@H](CC(N)=O)C(=O)N[C@@H]([C@@H](C)O)C(=O)N[C@@H](C)C(=O)N[C@@H]([C@@H](C)O)C(=O)N1)[C@@H](C)O)C(=O)N1CCC[C@H]1C(=O)N[C@@H](CO)C(=O)N[C@@H](CO)C(=O)N[C@H](C(=O)N[C@@H](CC(N)=O)C(=O)N[C@H](C(=O)NCC(=O)N1CCC[C@H]1C(=O)N[C@@H](CCCNC(=N)N)C(=O)N[C@H](C(=O)N[C@@H](Cc1ccc(O)cc1)C(N)=O)[C@@H](C)O)C(C)C)[C@@H](C)O
notes: also called compound 130

biological target: T1, human calcitonin receptor (human, UniProt P30988 25-474); test: cell-based or functional assay
T1 sequence (looked up): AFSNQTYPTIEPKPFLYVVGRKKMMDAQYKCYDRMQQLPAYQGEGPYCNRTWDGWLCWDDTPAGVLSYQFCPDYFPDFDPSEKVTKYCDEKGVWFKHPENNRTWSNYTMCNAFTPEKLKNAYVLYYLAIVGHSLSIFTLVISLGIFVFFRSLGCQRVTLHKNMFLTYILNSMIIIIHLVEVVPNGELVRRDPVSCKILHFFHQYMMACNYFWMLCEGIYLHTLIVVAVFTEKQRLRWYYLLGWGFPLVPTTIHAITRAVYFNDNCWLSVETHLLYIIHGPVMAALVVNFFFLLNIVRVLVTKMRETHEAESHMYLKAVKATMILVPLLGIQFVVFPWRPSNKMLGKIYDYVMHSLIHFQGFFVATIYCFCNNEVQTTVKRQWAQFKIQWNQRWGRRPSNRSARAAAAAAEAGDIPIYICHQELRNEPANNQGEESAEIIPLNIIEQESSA

In order of rising “Ratio hCT/hAmylin funct.” value:
1. B3  13.3
2. K([γGlu-C20 diacid])CNTATCATQRLAEFLRHSSPNFGAIPSSTNVGPHTY-NH2 (disulfide 2-7)  14.4
3. B1  17
4. B2  26
5. B6  44.9

In order of falling “hCTR funct. EC50 (pM)” value:
1. B4  100000 pM
2. B2  8660 pM
3. B6  7280 pM
4. B1  6380 pM
5. B5  3880 pM
6. B3  1730 pM
7. K([γGlu-C20 diacid])CNTATCATQRLAEFLRHSSPNFGAIPSSTNVGPHTY-NH2 (disulfide 2-7)  1450 pM

biological target: T2, human amylin receptor (amylin 3(a) receptor: human calcitonin receptor coexpressed with RAMP-3) (human, UniProt P30988 25-474; O60896 24-148); test: cell-based or functional assay
T2 sequence (looked up) 1: T1 sequence (looked up)
T2 sequence (looked up) 2: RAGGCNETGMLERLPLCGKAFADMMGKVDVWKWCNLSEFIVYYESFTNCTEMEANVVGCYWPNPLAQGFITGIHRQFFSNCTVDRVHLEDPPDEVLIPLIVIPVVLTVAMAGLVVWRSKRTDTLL

In order of rising “hAmylin-R funct. EC50 (pM)” value:
1. K([γGlu-C20 diacid])CNTATCATQRLAEFLRHSSPNFGAIPSSTNVGPHTY-NH2 (disulfide 2-7)  101 pM
2. B3  130 pM
3. B5  146 pM
4. B6  162 pM
5. B2  333 pM
6. B1  376 pM
7. B4  383 pM
